Here are results for 2 substances from patent US20060067919A1.

In the test the target is truncated APC mutant in SW480 cells (human) (UniProt P25054). Description: cell-based or functional assay.
Sequence of UniProt P25054 (P25054 2-1337, change not shown): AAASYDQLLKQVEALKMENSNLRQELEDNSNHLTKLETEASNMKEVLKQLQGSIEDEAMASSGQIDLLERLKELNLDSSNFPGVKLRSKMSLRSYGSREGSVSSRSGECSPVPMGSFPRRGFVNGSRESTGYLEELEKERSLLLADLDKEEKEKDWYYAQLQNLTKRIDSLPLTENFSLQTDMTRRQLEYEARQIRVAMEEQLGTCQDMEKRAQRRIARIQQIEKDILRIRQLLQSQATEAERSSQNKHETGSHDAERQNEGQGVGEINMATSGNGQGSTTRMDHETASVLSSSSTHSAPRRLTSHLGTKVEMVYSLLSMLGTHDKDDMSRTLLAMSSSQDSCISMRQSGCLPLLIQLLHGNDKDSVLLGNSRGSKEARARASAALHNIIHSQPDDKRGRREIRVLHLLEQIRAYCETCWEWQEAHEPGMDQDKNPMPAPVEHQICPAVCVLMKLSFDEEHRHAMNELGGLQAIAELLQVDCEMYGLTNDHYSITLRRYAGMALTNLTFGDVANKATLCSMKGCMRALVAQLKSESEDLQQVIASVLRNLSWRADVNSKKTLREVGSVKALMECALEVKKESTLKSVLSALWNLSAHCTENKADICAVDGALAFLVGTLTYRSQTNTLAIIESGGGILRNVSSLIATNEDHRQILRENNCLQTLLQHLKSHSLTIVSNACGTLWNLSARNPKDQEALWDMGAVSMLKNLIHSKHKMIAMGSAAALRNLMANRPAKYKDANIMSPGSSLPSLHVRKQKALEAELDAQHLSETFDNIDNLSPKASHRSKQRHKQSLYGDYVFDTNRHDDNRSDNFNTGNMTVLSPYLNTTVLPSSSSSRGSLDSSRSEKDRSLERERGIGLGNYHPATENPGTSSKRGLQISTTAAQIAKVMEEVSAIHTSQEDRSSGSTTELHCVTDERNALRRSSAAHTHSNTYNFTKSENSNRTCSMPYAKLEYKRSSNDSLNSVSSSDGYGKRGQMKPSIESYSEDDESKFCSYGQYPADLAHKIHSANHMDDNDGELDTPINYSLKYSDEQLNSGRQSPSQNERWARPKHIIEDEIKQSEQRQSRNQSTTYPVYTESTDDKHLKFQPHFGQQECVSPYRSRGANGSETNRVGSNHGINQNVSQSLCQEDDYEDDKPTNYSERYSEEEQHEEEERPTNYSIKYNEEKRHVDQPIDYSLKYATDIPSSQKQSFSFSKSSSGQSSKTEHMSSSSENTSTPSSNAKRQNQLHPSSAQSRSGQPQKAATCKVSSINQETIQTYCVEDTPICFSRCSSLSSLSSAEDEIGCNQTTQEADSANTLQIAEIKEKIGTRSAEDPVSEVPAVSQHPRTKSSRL

Consider “Asef-ABR expressed in cells from a plasmid (from UniProt Q9NR80 73-126)”, for which the migration of SW480 cells relative to parental or Mock cells (% of parental or Mock cells) amounted to 50.
“Asef-ΔDH (mutant that lacks the DH domain (GEF domain) of Asef) (from UniProt Q9NR80 1-619)” yielded a decrease of migration of SW480 cells of 40 % decrease.
